Activity (transformants/ug DNA) data for two substances are collected here from patent US6319692.

In this series the test system is phiFSW integrase (Int) (Lactobacillus casei temperate phage phiFSW). Briefly: cell_activity.

On to attB (L. casei YIT9029), for which the activity (transformants/ug DNA) (chromosomal attB as integration site, attB lost and attL/attR formed in all analysed transformants, in vivo, no direct binding measured) was 1000. As to attP (phiFSW), where the note is “pMSK742 integration into YIT9029 chromosome via attP x attB, no transformants when int region deleted, attL and attR confirmed by PCR, Southern and sequencing”, the activity (transformants/ug DNA) amounted to 1000.
